T1: human Trop-2 on Trop-2 positive cancer cells (human, UniProt P09758 27-323)
T1 sequence (looked up): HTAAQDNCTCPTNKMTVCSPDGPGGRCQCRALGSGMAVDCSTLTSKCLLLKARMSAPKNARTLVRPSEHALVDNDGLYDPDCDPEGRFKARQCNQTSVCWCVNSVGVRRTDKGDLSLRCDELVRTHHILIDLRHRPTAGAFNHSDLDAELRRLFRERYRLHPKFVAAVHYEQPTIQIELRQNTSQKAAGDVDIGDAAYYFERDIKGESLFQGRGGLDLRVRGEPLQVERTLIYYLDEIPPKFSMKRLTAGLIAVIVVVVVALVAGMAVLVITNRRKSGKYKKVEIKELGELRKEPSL

T2: human Trop-2-ECD-6His fusion protein (Homo sapiens, UniProt P09758)
T2 construct: made in house; host or cells: human 293 cell line
T2 sequence (P09758 with tags, fused parts or gaps): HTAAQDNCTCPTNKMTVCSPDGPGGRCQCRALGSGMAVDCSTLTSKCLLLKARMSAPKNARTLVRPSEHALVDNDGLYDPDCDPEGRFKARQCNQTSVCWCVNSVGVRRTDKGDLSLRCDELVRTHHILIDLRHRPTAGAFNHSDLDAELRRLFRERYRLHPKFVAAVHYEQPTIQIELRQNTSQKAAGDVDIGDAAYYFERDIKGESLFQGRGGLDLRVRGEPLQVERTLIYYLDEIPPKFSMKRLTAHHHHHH

T3: human Trop-2-ECD-6His fusion protein (human, UniProt P09758 27-274)
T3 construct: Expressed in a human 293 cell line; also called huTrop-2; human Trop-2 antigen
T3 sequence: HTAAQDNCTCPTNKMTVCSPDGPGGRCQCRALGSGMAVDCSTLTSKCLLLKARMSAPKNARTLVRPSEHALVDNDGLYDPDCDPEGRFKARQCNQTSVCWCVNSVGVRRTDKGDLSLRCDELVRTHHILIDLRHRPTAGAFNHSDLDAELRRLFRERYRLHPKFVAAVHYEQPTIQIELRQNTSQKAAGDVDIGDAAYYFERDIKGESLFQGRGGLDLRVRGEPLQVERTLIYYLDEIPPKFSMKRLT

B1: A1X4-MMAE antibody-drug conjugate (antibody, V domains shown)
VH: QVQLQESGPGLVKPSETLSLTCTVSGFSLTSYGVNWIRQPPGKGLEWIGVMWAGGSTNYNSALMSRVTISVDTSKNQFSLKLSSVTAADTAVYYCARDENWDGAWFAYWGQGTLVTVSS
VL: DIVMTQSPDSLAVSLGERATINCKSSQSLLNSGTRKNYLAWYQQKPGQPPKLLISWASSRESGVPDRFSGSGSGTDFTLTISSLQAEDVAVYYCKQSYNLFTFGGGTKVEIKR
modifications: mc-vc-PABA-MMAE on the reduced antibody; chain and positions not stated
B2: A1,2X4-MMAE antibody-drug conjugate (antibody, V domains shown)
VH: B1 VH with V67L, V71K
VL: B1 VL
modifications: mc-vc-PABA-MMAE on the reduced antibody; chain and positions not stated
B3: humanized IgG #125-1-5 Hu3/Lu5 (antibody, V domains shown)
VH: QVQLVQSGAEVKKPGASVKVSCKASGYTFTTYVIHWVRQAPGQRLEWMGYINPNNDGTKYNEKFKGKATLTSDKSSTTAYMEVRGLTSEDSAVYYCARPHFETHAMDYWGQGTLVTVSS
VL: DIQMTQSPSSLSASVGDRVTITCKASEDIFNRLAWYQQKPGKAPKLLLYGATSLETGVPSRFSGSGSGTDYTLTISSLQPEDFATYYCQQYWNTWTFGQGTKVEIKR
notes: also called IgG Hu3/Lu5
B4: humanized #125-1-5 Hu1/Lu6 (antibody, V domains shown)
VH: QVQLVQSGAEVKKPGASVKVSCKASGYTFTTYVIHWVRQAPGQRLEWMGYINPNNDGTKYNEKFKGRVTITRDTSASTAYMELSSLRSEDTAVYYCARPHFETHAMDYWGQGTLVTVSS
VL: DIQMTQSPSSLSASVGDRVTITCKASEDIFNRLAWYQQKPGKAPKLLISGATSLETGVPSRFSGSGSGKDYTLTISSLQPEDFATYYCQQYWNTWTFGQGTKVEIK
notes: Humanized antibody
B5: humanized #125-1-5 Hu4/Lu6 (antibody, V domains shown)
VH: B4 VH with V20M, M48I, V68A, I70L, R72S, T74K
VL: B4 VL
notes: Humanized antibody
B6: humanized #125-1-5 Hu2/Lu6 (antibody, V domains shown)
VH: B4 VH with R38K, A40K, R44G, M48I
VL: B4 VL
notes: Humanized antibody
B7: humanized #125-1-5 Hu4/Lu5 (antibody, V domains shown)
VH: B4 VH with V20M, M48I, V68A, I70L, R72S, T74K
VL: B4 VL with I48L, S49Y, K69T
notes: Humanized antibody
B8: humanized #125-1-5 Hu3/Lu6 (antibody, V domains shown)
VH: B3 VH
VL: B4 VL
notes: Humanized antibody
B9: humanized #125-1-5 Hu1/Lu5 (antibody, V domains shown)
VH: B4 VH
VL: B4 VL with I48L, S49Y, K69T
B10: humanized #125-1-5 Hu2/Lu5 (antibody, V domains shown)
VH: B4 VH with R38K, A40K, R44G, M48I
VL: B4 VL with I48L, S49Y, K69T
notes: Humanized antibody
B11: Hu(A1)/LuX: humanized #118-2-5, heavy chain Hu(A1) (SEQ ID NO: 29) with light chain LuX (SEQ ID NO: 27) (antibody, V domains shown)
VH: B1 VH
VL: DIVMTQSPDSLAVSLGERATINCKSSQSLLNSGTRKNYLAWYQQKPGQPPKLLIYWASSRESGVPDRFSGSGSGTDFTLTISSLQAEDVAVYYCKQSYNLFTFGGGTKVEIK
B12: HuA/Lu(X3): humanized #118-2-5, heavy chain HuA (SEQ ID NO: 23) with light chain Lu(X3) (SEQ ID NO: 36) (antibody, V domains shown)
VH: B1 VH
VL: DIVMTQSHKFISTSVGDRVSITCKASQDVDTAVAWYQQKPGQSPKLLIHWASTRHTGVPDRFTGGGSGTDFTLTLSNVQSEDLADYFCQQYSTFPWTFGGGTRLEIK
B13: #125-1-5 mouse H14-4/L3-4: parental mouse #125-1-5 heavy/light chains H14-4/L3-4, comparator of the humanized IgGs (antibody, V domains shown)
VH: QIQLVQSGPELVKPGASVKMSCKASGYTFTTYVIHWVKQKPGQGLEWIGYINPNNDGTKYNEKFKGKATLISDKSSTTAYMEVRGLTSEDSAVYYCARPHFETHAMDYWGQGTSVTVSS
VL: DIQMTQSPSSFSVSLGDSVTITCKASEDIFNRLAWYQQKPGNAPRLLISGATSLETGVPSRFSGGGSGKEYTLSITSLQNEDVATYYCQQYWNTWTFGGGTKLEIK

Changes are numbered by the printed parent chain.

The source of these data is US20230235080A1, “TROPHOBLAST CELL-SURFACE ANTIGEN-2 (TROP-2) ANTIBODIES” (Bionecure Therapeutics, Inc., priority 2020, published 2023).

One assay deals with T1, human Trop-2 on Trop-2 positive cancer …. The experiment in a line: cell-based or functional assay.
Conditions: not given
With B1, the “in vitro cytotoxicity IC50, Trop-2-high BxPC-3 cells” value is less than 1 nM.

Regarding B2, the “in vitro cytotoxicity IC50, all cells that express different levels of Trop-2” value was less than 1 nM.

For another assay the target is unchanged. Put plainly: cell-based or functional assay.
Conditions: not given
The source holds these as a separate data set.
With B3, the “Internalization rate (flow cytometry, MDA-MB-468 cells)” value came out at 14%.

For B4, the “Internalization rate (flow cytometry, MDA-MB-468 cells)” value amounted to 14%.

For the molecule B5, the “Internalization rate (flow cytometry, MDA-MB-468 cells)” value is 10.3%.

For B6, the “Internalization rate (flow cytometry, MDA-MB-468 cells)” value turned out to be 14.1%.

Consider B7, for which the “Internalization rate (flow cytometry, MDA-MB-468 cells)” value is 24.9%.

On to B8, for which the “Internalization rate (flow cytometry, MDA-MB-468 cells)” value worked out at 7.5%.

For the molecule B9, the “Internalization rate (flow cytometry, MDA-MB-468 cells)” value stood at 49.7%.

On to B10, for which the “Internalization rate (flow cytometry, MDA-MB-468 cells)” value is 47.3%.

Another assay relates to Trop-2 positive breast cancer cell line MDA-MB-468. The experiment in a line: Internalization assay by flow cytometry (Example 2 protocol). In kind it is cell-based, human. The settings on record: Table 9; second round of humanization of #118-2-5. On the procedure: The chimeric IgG1 #118-2-5 and #125-1-5 were further evaluated by internalization assay using Trop-2 positive breast cancer cell line MDA-MB-468. MDA-MB-468 cells were seeded at 1×10^5 cell/well. Next, the chimeric or benchmark IgGs were added to cells in FACS buffer and incubated for 2 hours at 4° C. After incubation, the cells were washed to remove unbound antibody. The cells were then incubated at 37° C. After 2 hours, the cells were dissociated and stained with fluorescent-conjugated […] secondary antibodies for 30 minutes on ice in dark before being analyzed using Beckman flow cytometry system. The fluorescent intensity and cell binding percentage at each time point were analyzed by Beckman flow cytometric software. The amount of chimeric IgGs internalized into cells was determined using the following formula: % internalization rate = 100 × (MFI4°C - MFI37°C) / MFI4°C.
On the technique in general: A flow cytometer gives signals particle by particle.
In the case of B11, the Internalization rate is given as 56.01%.

For the molecule B12, the Internalization rate was found to be 13.22%.

A further assay concerns the target T2, human Trop-2-ECD-6His fusion protein. The experiment in a line: Antigen binding assay (ELISA) on immobilized Trop-2-ECD-6His. Particulars: Table 8; second round of humanization of #118-2-5.
As usually defined, the EC50 is the midpoint of the concentration-response curve. The low end stands for higher potency in that assay, the high end for lower potency in that assay. B12 gave an EC50 of 0.45 nM.

Still in this assay, the particulars now being: Table 10; humanized #125-1-5 antibodies.
In turn, B13 gave an EC50 of 0.004 nM.

B9 gave an EC50 of 0.016 nM.

Another assay addresses T3, human Trop-2-ECD-6His fusion protein. The experiment in a line: antigen binding ELISA on immobilized human Trop-2-ECD-6His.
Conditions: not given
For orientation: An ELISA detects its analyte on a solid surface through an enzyme-linked reagent.
The molecule B3 registered a concentration giving a half-maximal response (EC50) of 0.012 nM.

Regarding B4, the EC50 stood at 0.003 nM.

B5 registered an EC50 of 0.022 nM.

As for B6, the half-maximal effective concentration (EC50) amounted to 0.018 nM.

For B7, the EC50 came to 0.019 nM.

Consider B8, for which the EC50 is 0.045 nM.

As for B10, the EC50 was found to be 0.007 nM.
